Experimental data published in US20030235863A1 (published 2003).
No end group written: not given here. *: point of attachment. For = O=C*

B2: formyl peptide receptor (FPR), wild type, solubilized in dodecyl maltoside (receptor, human, UniProt P21462 1-350, looked up)
chain: METNSSLPTNISGGTPAVSAGYLFLDIITYLVFAVTFVLGVLGNGLVIWVAGFRMTHTVTTISYLNLAVADFCFTSTLPFFMVRKAMGGHWPFGWFLCKFVFTIVDINLFGSVFLIALIALDRCVCVLHPVWTQNHRTVSLAKKVIIGPWVMALLLTLPVIIRVTTVPGKTGTVACTFNFSPWTNDPKERINVAVAMLTVRGIIRFIIGFSAPMSIVAVSYGLIATKIHKQGLIKSSRPLRVLSFVAAAFFLCWSPYQVVALIATVRIRELLQGMYKEIGIAVDVTSALAFFNSCLNPMLYVFMGQDFRERLIHALPASLERALTEDSTQTSDTATNSTLPSAEVELQAK
notes: Crude detergent extract of membranes, not purified; the extract holds endogenous G protein subunits; also called wild type receptor; soluble FPR
B4: FPR-GFP fusion protein (receptor)
chain: METNSSLPTNISGGTPAVSAGYLFLDIITYLVFAVTFVLGVLGNGLVIWVAGFRMTHTVTTISYLNLAVADFCFTSTLPFFMVRKAMGGHWPFGWFLCKFVFTIVDINLFGSVFLIALIALDRCVCVLHPVWTQNHRTVSLAKKVIIGPWVMALLLTLPVIIRVTTVPGKTGTVACTFNFSPWTNDPKERINVAVAMLTVRGIIRFIIGFSAPMSIVAVSYGLIATKIHKQGLIKSSRPLRVLSFVAAAFFLCWSPYQVVALIATVRIRELLQGMYKEIGIAVDVTSALAFFNSCLNPMLYVFMGQDFRERLIHALPASLERALTEDSTQTSDTATNSTLPSAEVELQAKAAA
notes: Solubilized in dodecyl maltoside from membranes of transfected cells; also called R^F; fluorescent formyl peptide receptor; not shown: Clontech's EGFP (enhanced green fluorescent protein), from its first amino acid

How the values were obtained:
[1] = molecular target: T1, C-terminal hexahistidine-tagged FPR (human, UniProt P21462 1-350); test: receptor on DCNi beads, flow cytometry with rapid mixer, anti-FITC antibody added
T1 construct: Construct limits and junction are not described; also called FPR:C-H6; C-H6:FPR
T1 sequence: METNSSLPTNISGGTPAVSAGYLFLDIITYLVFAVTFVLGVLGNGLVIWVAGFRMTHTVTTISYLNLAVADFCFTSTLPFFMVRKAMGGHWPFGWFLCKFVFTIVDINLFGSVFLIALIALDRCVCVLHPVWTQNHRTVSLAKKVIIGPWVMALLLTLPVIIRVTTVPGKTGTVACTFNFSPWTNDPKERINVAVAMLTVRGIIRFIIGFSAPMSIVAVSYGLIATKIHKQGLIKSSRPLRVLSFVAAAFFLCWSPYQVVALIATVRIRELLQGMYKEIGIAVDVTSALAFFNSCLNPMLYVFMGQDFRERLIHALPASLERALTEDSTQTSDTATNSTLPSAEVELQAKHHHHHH

[2] = molecular target: B2; test: soluble receptor in detergent, spectrofluorimetry
Description: (§1) Spectrofluorimetric Analysis of Soluble Complexes. Fluorescence was measured with an SLM 8000 spectrofluorimeter (SLM Instruments, Inc.) using the photon counting mode. The sample holder was fitted with a cylindrical cuvette adapter, which allowed the use of 200 μl samples in 7mm ×45 mm cylindrical cuvettes (Sienco; Wheat Ridge, Colo.), stirred with 2×5 mm stir bars (Bel-Art). Excitation was at 490 nm, and stray light was reduced with a 490+/−10 nm filter (Corion; now part of Spectra-Physics, Franklin, Mass.). Emission was monitored using a 520+/−10 nm filter (Corion) and a 500 nm long-pass filter (Kopp; Pittsburg, Pa.). Additions to samples during kinetic measurements were made through an injection port on the top of the sample holder with 10 μl glass syringes (Hamilton; Reno, Nev.). […] For accurate analysis, and for kinetic dissociation analysis, the percent of the control curve corresponding to the percent free ligand was subtracted from the receptor-containing curve.

[3] = molecular target: T1, C-terminal hexahistidine-tagged FPR; test: soluble receptor in detergent, spectrofluorimetry
Description: as §1

[4] = molecular target: T2, N-terminal hexahistidine-tagged FPR (human, UniProt P21462 1-350); test: soluble receptor in detergent, spectrofluorimetry
T2 construct: Construct limits and junction are not described; also called N-H6:FPR
T2 sequence: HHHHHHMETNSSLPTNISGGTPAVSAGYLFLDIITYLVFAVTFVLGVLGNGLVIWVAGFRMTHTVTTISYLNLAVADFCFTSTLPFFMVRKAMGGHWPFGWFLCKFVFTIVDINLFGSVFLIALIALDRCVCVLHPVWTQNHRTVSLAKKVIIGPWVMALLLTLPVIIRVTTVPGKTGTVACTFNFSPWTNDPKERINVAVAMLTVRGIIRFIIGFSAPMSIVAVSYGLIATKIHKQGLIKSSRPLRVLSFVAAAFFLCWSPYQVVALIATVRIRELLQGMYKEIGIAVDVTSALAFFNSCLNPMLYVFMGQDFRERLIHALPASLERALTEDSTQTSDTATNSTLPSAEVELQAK
Description: as §1

[5] = molecular target: T1, C-terminal hexahistidine-tagged FPR; test: receptor on DCNi beads, flow cytometry
[6] = molecular target: T2, N-terminal hexahistidine-tagged FPR; test: receptor on DCNi beads, flow cytometry
[7] = molecular target: T1, C-terminal hexahistidine-tagged FPR; test: soluble receptor in detergent, dissociation of L^F
[8] = molecular target: T2, N-terminal hexahistidine-tagged FPR; test: soluble receptor in detergent, dissociation of L^F
[9] = molecular target: B2; test: spectrofluorimetry, soluble FPR in dodecyl maltoside, free ligand quenched by anti-FITC antibody
From the text: For accurate analysis, and for kinetic dissociation analysis, the percent of the control curve corresponding to the percent free ligand was subtracted from the receptor-containing curve.
The free ligand and bound ligand were discriminated using an antibody to fluorescein that rapidly quenched only the free ligand.

[10] = molecular target: B2; test: soluble receptor in detergent, spectrofluorimetry, dissociation of L^F
Description: as §1

[11] = molecular target: B4; test: flow cytometry, LRG assembly on DCNi G beads with 30 nM FPR-GFP
Description: Standard LRG Assembly Assay. […] Each mixture was mixed by pipetting to ensure a uniform starting suspension of the beads in 96 V-well plates (Costar), and then mixed at low speed on a vortex mixer at 7° for two hours. The 10 μl assays were individually brought to 200 μl with 0.1% dodecyl maltoside in buffer A in 12×75 mm tubes for flow cytometric measurement of fluorescence of the beads. LRG assembly was defined as the difference between fluorescence without GTPγS and that with GTPγS. All determinations were done in duplicate.

[12] = molecular target: B2; test: spectrofluorimetric competition with L^F for soluble FPR; IC50 converted to Kd
Description: as §1
(§2) Comparison of LR and LRG Affinities for a Family of Non-fluorescent Ligands.

[13] = molecular target: B4; test: Kd from competition on soluble FPR divided by EC50 of LRG assembly with FPR-GFP
From the text: as §2

[14] = molecular target: G protein heterotrimer αi3β1H6γ2 on DCNi beads; test: flow cytometry, L^FRG assembly on DCNi G beads
[15] = molecular target: T3, Gαi3β4γ2H6-FLAG; test: flow cytometry, LRG assembly on anti-FLAG beads
T3 construct: Held on streptavidin-coated polystyrene beads through a biotinylated anti-FLAG antibody; also called αi3β4γ2-FLAG-H6

[16] = molecular target: G protein heterotrimer αi3β1H6γ2 on DCNi beads; test: flow cytometry, standard LRG assembly on nickel beads
[17] = molecular target: β1H6γ2 dimer on DCNi beads; test: flow cytometry, βγ-coated DCNi beads, 1 µM GTP (bar 6) against GTPγS (bar 2)
[18] = molecular target: G protein heterotrimer αi3β1H6γ2 on DCNi beads; test: flow cytometry, standard assembly (bar 3) against GTPγS (bar 4)

G protein heterotrimer αi3β1H6γ2 on DCNi beads, sequence (chain, as listed by the source, chain 1 of 3): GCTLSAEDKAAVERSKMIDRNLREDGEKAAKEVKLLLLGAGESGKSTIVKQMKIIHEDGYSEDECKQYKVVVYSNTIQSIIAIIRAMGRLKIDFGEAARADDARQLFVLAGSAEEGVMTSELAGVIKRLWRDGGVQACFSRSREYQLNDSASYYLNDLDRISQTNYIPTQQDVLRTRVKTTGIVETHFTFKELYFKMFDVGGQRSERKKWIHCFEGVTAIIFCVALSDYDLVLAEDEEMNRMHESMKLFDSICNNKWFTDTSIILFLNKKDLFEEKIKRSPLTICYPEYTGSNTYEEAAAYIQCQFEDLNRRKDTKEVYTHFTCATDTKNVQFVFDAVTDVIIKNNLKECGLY
G protein heterotrimer αi3β1H6γ2 on DCNi beads, sequence (chain, as listed by the source, chain 2 of 3): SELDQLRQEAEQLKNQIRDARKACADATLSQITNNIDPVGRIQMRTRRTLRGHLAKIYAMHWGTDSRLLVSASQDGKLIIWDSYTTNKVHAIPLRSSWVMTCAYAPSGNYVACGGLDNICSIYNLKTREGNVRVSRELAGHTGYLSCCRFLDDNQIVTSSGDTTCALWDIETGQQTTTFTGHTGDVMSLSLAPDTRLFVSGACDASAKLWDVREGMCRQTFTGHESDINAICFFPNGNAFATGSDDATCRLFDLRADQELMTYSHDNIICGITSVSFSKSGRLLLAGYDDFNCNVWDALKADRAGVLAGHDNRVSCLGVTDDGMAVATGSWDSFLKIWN
G protein heterotrimer αi3β1H6γ2 on DCNi beads, sequence (chain, as listed by the source, chain 3 of 3): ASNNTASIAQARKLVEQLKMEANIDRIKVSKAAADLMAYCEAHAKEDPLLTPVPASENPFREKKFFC
T3 sequence (P08753 2-354, chain 1 of 3): as the sequence (chain, as listed by the source, chain 1 of 3) above
T3 sequence (P29387 2-340, chain 2 of 3, further chain): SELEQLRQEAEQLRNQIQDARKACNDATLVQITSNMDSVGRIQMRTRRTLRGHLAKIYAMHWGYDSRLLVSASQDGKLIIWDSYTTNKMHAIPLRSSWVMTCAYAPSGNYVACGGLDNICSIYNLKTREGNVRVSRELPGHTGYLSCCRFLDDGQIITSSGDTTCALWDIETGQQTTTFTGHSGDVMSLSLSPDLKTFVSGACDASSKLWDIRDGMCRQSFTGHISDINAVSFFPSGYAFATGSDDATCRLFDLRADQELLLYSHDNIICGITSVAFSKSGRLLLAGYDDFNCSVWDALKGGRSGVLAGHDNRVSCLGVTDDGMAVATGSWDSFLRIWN
T3 sequence (P63212 2-68, chain 3 of 3, further chain): as the sequence (chain, as listed by the source, chain 3 of 3) above
β1H6γ2 dimer on DCNi beads, sequence (chain, as listed by the source, chain 1 of 2): as the sequence (chain, as listed by the source, chain 2 of 3) above
β1H6γ2 dimer on DCNi beads, sequence (chain, as listed by the source, chain 2 of 2): as the sequence (chain, as listed by the source, chain 3 of 3) above

B1: formyl-MLFK-FITC (peptide)
peptide: For-MLFK
modifications: also: FITC conjugated, site not given here
notes: everywhere else it is fMLFK-FITC; also called fMLFK-FITC; fluorescent ligand
Q: For B1, which “t1/2 (dissociation halftime)” value [1] is on record?
A: Its value is 14 s.

Q: And the Kd [2]?
A: Its Kd is 5 nM.

Q: And the Kd [3]?
A: Its Kd is 10 nM.

Q: And the Kd [4]?
A: The Kd was 7 nM.

Q: What about the Kd [5] of the same binder?
A: The Kd was 4 nM.

Q: What about the Kd [6] of the same binder?
A: The Kd was 8 nM.

Q: And the “t1/2 (dissociation halftime)” value [7]?
A: Its value is 14 s.

Q: And the “t1/2 (dissociation halftime)” value [8]?
A: The value was 15 s.

Q: What about the Kd [9] of the same binder?
A: The Kd was 4.8 nM.

Q: And the “t1/2 (dissociation halftime)” value [10]?
A: The value was 14 s.

Q: For For-MLFF [fMLFF], which EC50 [11] is on record?
A: The EC50 was 27 nM.

Q: What about the Kd [12] of the same binder?
A: Its Kd is 75 nM.

Q: What about the “ratio of Kd (for LR) to EC50 (for LRG formation)” value [13] of the same binder?
A: The value was 2.8 ratio.

Q: What does the source list for B2?
A: signal to background [14]: ≤ 4 ratio; ratio of total signal to nonspecific signal [15]: 3 ratio; ratio of total signal to nonspecific signal [16]: 3 ratio

B3: FPR-Giα2 fusion protein (receptor, human;rat)
chain: METNSSLPTNISGGTPAVSAGYLFLDIITYLVFAVTFVLGVLGNGLVIWVAGFRMTHTVTTISYLNLAVADFCFTSTLPFFMVRKAMGGHWPFGWFLCKFVFTIVDINLFGSVFLIALIALDRCVCVLHPVWTQNHRTVSLAKKVIIGPWVMALLLTLPVIIRVTTVPGKTGTVACTFNFSPWTNDPKERINVAVAMLTVRGIIRFIIGFSAPMSIVAVSYGLIATKIHKQGLIKSSRPLRVLSFVAAAFFLCWSPYQVVALIATVRIRELLQGMYKEIGIAVDVTSALAFFNSCLNPMLYVFMGQDFRERLIHALPASLERALTEDSTQTSDTATNSTLPSAEVELQAKAAAMGCTVSAEDKAAAERSKMIDKNLREDGEKAAREVKLLLLGAGESGKSTIVKQMKIIHEDGYSEEECRQYRAVVYSNTIQSIMAIVKAMGNLQIDFADPQRADDARQLFALSCAAEEQGMLPEDLSGVIRRLWADHGVQACFGRSREYQLNDSAAYYLNDLERIAQSDYIPTQQDVLRTRVKTTGIVETHFTFKDLHFKMFDVGGQRSERKKWIHCFEGVTAIIFCVALSAYDLVLAEDEEMNRMHESMKLFDSICNNKWFTDTSIILFLNKKDLFEEKITQSPLTICFPEYTGANKYDEAASYIQSKFEDLNKRKDTKEIYTHFTCATDTKNVQFVFDAVTDVIIKNNLKDCGLF
notes: Solubilized in dodecyl maltoside; also called FPR-αi2; FPR-Gαi2
Q: How did the “total fluorescence to background ratio” value [17] turn out when B3 was run?
A: The value was 2.7 ratio.

Q: B4 was tested. Which “total binding to background ratio” value [18] did it give?
A: The value was 4.9 ratio.
